Key:
HLA-A*02:01 [1] = experiment: IEDB peptide-MHC binding, purified MHC/direct/fluorescence; filed as Kd, often an IC50 or EC50 that approximates it; ≥ and ≤ were set here for values at or beyond the usual limits of such assays
HLA-B*53:01 = experiment: IEDB peptide-MHC binding, purified MHC/competitive/radioactivity; filed as Kd, often an IC50 or EC50 that approximates it; ≥ and ≤ were set here for values at or beyond the usual limits of such assays
HLA-A*01:01 [2] = experiment: as above
HLA-A*24:02 = experiment: as above
HLA-A*01:01 [3] = experiment: IEDB peptide-MHC binding, purified MHC/direct/fluorescence; filed as Kd, often an IC50 or EC50 that approximates it; ≥ and ≤ were set here for values at or beyond the usual limits of such assays
HLA-A*31:01 [4] = experiment: as above
HLA-A*03:01 = experiment: as above; details: source organism: Pseudomonas aeruginosa UCBPP-PA14
HLA-A*02:01 [5] = experiment: IEDB peptide-MHC binding, purified MHC/competitive/fluorescence; ≥ and ≤ were set here for values at or beyond the usual limits of such assays
HLA-B*44:02 = experiment: IEDB peptide-MHC binding, purified MHC/competitive/radioactivity; filed as Kd, often an IC50 or EC50 that approximates it; ≥ and ≤ were set here for values at or beyond the usual limits of such assays
HLA-B*07:02 = experiment: IEDB peptide-MHC binding, purified MHC/direct/fluorescence; filed as Kd, often an IC50 or EC50 that approximates it; ≥ and ≤ were set here for values at or beyond the usual limits of such assays
HLA-A*30:02 = experiment: IEDB peptide-MHC binding, purified MHC/competitive/radioactivity; filed as Kd, often an IC50 or EC50 that approximates it; ≥ and ≤ were set here for values at or beyond the usual limits of such assays
HLA-A*69:01 = experiment: IEDB peptide-MHC binding, purified MHC/direct/fluorescence; filed as Kd, often an IC50 or EC50 that approximates it; ≥ and ≤ were set here for values at or beyond the usual limits of such assays
HLA-B*40:01 [6] = experiment: as above; details: source organism: Haemophilus influenzae
HLA-A*26:01 = experiment: IEDB peptide-MHC binding, purified MHC/competitive/radioactivity; filed as Kd, often an IC50 or EC50 that approximates it; ≥ and ≤ were set here for values at or beyond the usual limits of such assays
HLA-B*40:01 [7] = experiment: as above
HLA-B*58:01 = experiment: IEDB peptide-MHC binding, purified MHC/direct/fluorescence; filed as Kd, often an IC50 or EC50 that approximates it; ≥ and ≤ were set here for values at or beyond the usual limits of such assays; details: source organism: Human immunodeficiency virus 1
HLA-A*33:01 = experiment: IEDB peptide-MHC binding, purified MHC/competitive/radioactivity; filed as Kd, often an IC50 or EC50 that approximates it; ≥ and ≤ were set here for values at or beyond the usual limits of such assays; details: source organism: Dengue virus 2 Jamaica/1409/1983
HLA-A*31:01 [8] = experiment: as above; details: source organism: Dengue virus 2 Jamaica/1409/1983
HLA-A*68:01 = experiment: as above; details: source organism: Dengue virus 2 Jamaica/1409/1983
HLA-A*02:02 = experiment: as above
HLA-A*02:06 = experiment: as above
HLA-A*02:03 = experiment: as above
HLA-A*11:01 = experiment: IEDB peptide-MHC binding, purified MHC/direct/fluorescence; filed as Kd, often an IC50 or EC50 that approximates it; ≥ and ≤ were set here for values at or beyond the usual limits of such assays; details: source organism: Yellow fever virus 17D
[9] = source organism: Dengue virus 3 Martinique/1243/1999
[10] = source organism: Dengue virus 1 Brazil/97-11/1997
[11] = source organism: Zaire ebolavirus
[12] = source organism: Dengue virus 2 Jamaica/1409/1983
[13] = source organism: Vaccinia virus
[14] = source organism: Sudan ebolavirus
[15] = source organism: Haemophilus influenzae
[16] = source organism: Mammarenavirus caliense
[17] = source organism: Dengue virus 4 Philippines/H241/1956
[18] = source organism: Vaccinia virus WR
[19] = source organism: Bacillus anthracis
[20] = source organism: Mammarenavirus guanaritoense

Question: For LLMEGLKLL, which Kd (HLA-A*02:01 [1]; source organism: Mammarenavirus lassaense) is on record?
Answer: ≤ 1 nM

Question: With LPLFIFSLKD as the sequence, how does the Kd (HLA-B*53:01; [9]) read?
Answer: 2920 nM

Question: Which Kd (HLA-A*01:01 [2]; [10]) does the source give for LTEFQPHQL here?
Answer: 8760 nM

Question: For LTEFQPHQLW, which Kd (HLA-A*01:01 [2]; [10]) is on record?
Answer: 12900 nM

Question: And the Kd (HLA-B*53:01; [10])?
Answer: 990 nM

Question: Which Kd (HLA-A*24:02; source organism: Dengue virus 2 Peru/IQT2913/1996) does the source give for LYAVATTFIT here?
Answer: ≥ 23500 nM

Question: With MASTPASRY as the sequence, how does the Kd (HLA-A*01:01 [3]; source organism: Influenza A virus (A/Fujian/411/02-like(H3N2))) read?
Answer: ≥ 20000 nM

Question: Which Kd (HLA-B*53:01; [9]) does the source give for MTTEDMLTVW here?
Answer: 122 nM

Question: With MVTGGIRRR as the sequence, how does the Kd (HLA-A*31:01 [4]; source organism: Pseudomonas aeruginosa UCBPP-PA14) read?
Answer: 251 nM

Question: What about the Kd (HLA-A*03:01) of the same sequence?
Answer: ≥ 20000 nM

Question: Which IC50 (HLA-A*02:01 [5]; [11]) does the source give for NAGQFLSFA here?
Answer: ≥ 121000 nM

Question: NEMVLLQME was tested. Which Kd (HLA-B*44:02; [12]) did it give?
Answer: 907 nM

Question: Which IC50 (HLA-A*02:01 [5]; [13]) does the source give for NLSPETLVG here?
Answer: ≥ 170000 nM

Question: Which IC50 (HLA-A*02:01 [5]; [11]) does the source give for NLTYVQLES here?
Answer: 11000 nM

Question: How did the Kd (HLA-B*53:01; [10]) turn out when NPAVLRKLCI was run?
Answer: 5200 nM

Question: How did the Kd (HLA-B*53:01; [9]) turn out when NPQKENDQY was run?
Answer: 2080 nM

Question: For NPTVDGITVI, which Kd (HLA-B*53:01; [12]) is on record?
Answer: 2510 nM

Question: Which Kd (HLA-B*07:02; source organism: Human immunodeficiency virus type 2 (ISOLATE D205,7)) does the source give for NPVPVGNIY here?
Answer: ≥ 40300 nM

Question: With QIPSSSPTT as the sequence, how does the IC50 (HLA-A*02:01 [5]; [14]) read?
Answer: 42800 nM

Question: QLSKSEFNTY was tested. Which Kd (HLA-A*01:01 [2]; [10]) did it give?
Answer: 1390 nM

Question: What about the Kd (HLA-A*30:02; [10]) of the same sequence?
Answer: 71.1 nM

Question: Which results are given for RFEAYGWQV?
Answer: Kd (HLA-A*69:01; [15]): 337 nM; Kd (HLA-A*31:01 [4]; [15]): 924 nM; Kd (HLA-B*40:01 [6]): 227 nM

Question: For RNPQKENDQY, which Kd (HLA-A*30:02; [9]) is on record?
Answer: ≥ 69700 nM

Question: Which Kd (HLA-B*07:02; source organism: Mycobacterium tuberculosis variant bovis BCG str. Pasteur 1173P2) does the source give for RPEAAAGQL here?
Answer: 179 nM

Question: How did the Kd (HLA-A*01:01 [2]; [10]) turn out when RTPQDNQLAY was run?
Answer: 703 nM

Question: And the Kd (HLA-A*30:02; [10])?
Answer: 267 nM

Question: SEFKSRFFIW was tested. Which Kd (HLA-A*01:01 [2]; [16]) did it give?
Answer: 2210 nM

Question: What about the Kd (HLA-A*30:02; [16]) of the same sequence?
Answer: 7480 nM

Question: What about the Kd (HLA-A*26:01; [16]) of the same sequence?
Answer: ≥ 69700 nM

Question: How did the Kd (HLA-B*40:01 [7]; [12]) turn out when SELPETLETL was run?
Answer: 7.2 nM

Question: For SFTVVSNGA, which IC50 (HLA-A*02:01 [5]; [11]) is on record?
Answer: ≥ 372000 nM

Question: For SLEKAAEVSW, which Kd (HLA-B*44:02; [10]) is on record?
Answer: 174 nM

Question: SLIPDATHL was tested. Which Kd (HLA-A*02:01 [1]; source organism: Lassa virus Josiah) did it give?
Answer: 18.1 nM

Question: SPSKRNQTF was tested. Which Kd (HLA-B*07:02; source organism: Mammarenavirus amapariense) did it give?
Answer: 66.8 nM

Question: With SRKTFDSEY as the sequence, how does the Kd (HLA-A*30:02; [12]) read?
Answer: 3810 nM

Question: Which Kd (HLA-A*01:01 [2]; [12]) does the source give for STESHNQTF here?
Answer: 8210 nM

Question: With TAVPWNASW as the sequence, how does the Kd (HLA-B*58:01) read?
Answer: 13 nM

Question: TLAGVNVGE was tested. Which IC50 (HLA-A*02:01 [5]; [11]) did it give?
Answer: ≥ 211000 nM

Question: Which IC50 (HLA-A*02:01 [5]; [11]) does the source give for TQSRPIQNV here?
Answer: 14600 nM

Question: Which Kd (HLA-A*01:01 [2]; [17]) does the source give for TTDISEMGA here?
Answer: 188 nM

Question: For TTQDEGAAI, which IC50 (HLA-A*02:01 [5]; [11]) is on record?
Answer: ≥ 220000 nM

Question: Which Kd (HLA-A*33:01) does the source give for TVMDIISRR here?
Answer: 11.1 nM

Question: What about the Kd (HLA-A*26:01; [12]) of the same sequence?
Answer: 2710 nM

Question: And the Kd (HLA-A*31:01 [8])?
Answer: 17.9 nM

Question: What about the Kd (HLA-A*68:01) of the same sequence?
Answer: 3.87 nM

Question: Which Kd (HLA-A*30:02; [10]) does the source give for TWHYDEDNPY here?
Answer: 3070 nM

Question: How did the Kd (HLA-A*24:02; [9]) turn out when TWPKSHTLW was run?
Answer: 39.8 nM

Question: Which Kd (HLA-A*24:02; [12]) does the source give for TYGLNTFTN here?
Answer: 1590 nM

Question: Which Kd (HLA-A*24:02; source organism: Homo sapiens) does the source give for VAELVHFLL here?
Answer: 149 nM

Question: VAGGLLLAAY was tested. Which Kd (HLA-A*30:02; [17]) did it give?
Answer: 78.7 nM

Question: Which Kd (HLA-A*01:01 [2]; [10]) does the source give for VAIDLDPVVY here?
Answer: ≥ 33400 nM

Question: And the Kd (HLA-A*30:02; [10])?
Answer: 825 nM

Question: With VDLHPASAW as the sequence, how does the Kd (HLA-B*44:02; [10]) read?
Answer: 80.2 nM

Question: VEDYGFGMF was tested. Which Kd (HLA-B*40:01 [7]; [17]) did it give?
Answer: 965 nM

Question: VILSLPRIA was tested. Which IC50 (HLA-A*02:01 [5]; source organism: Variola virus) did it give?
Answer: 1390 nM

Question: With VIRHVDGKIL as the sequence, how does the Kd (HLA-A*02:02; [18]) read?
Answer: ≥ 70000 nM

Question: And the Kd (HLA-A*02:06; [18])?
Answer: ≥ 69800 nM

Question: And the Kd (HLA-A*02:03; [18])?
Answer: ≥ 33400 nM

Question: VLNGAELSN was tested. Which IC50 (HLA-A*02:01 [5]; [13]) did it give?
Answer: ≥ 114000 nM

Question: What does the source list for VLRGNRQGL?
Answer: Kd (HLA-A*02:01 [1]; [19]): 4460 nM; Kd (HLA-A*69:01; [19]): ≥ 20000 nM

Question: For VLWDIPTPK, which Kd (HLA-A*11:01) is on record?
Answer: 4.4 nM

Question: Which IC50 (HLA-A*02:01 [5]; [14]) does the source give for VTNSTLEVT here?
Answer: ≥ 122000 nM

Question: How did the Kd (HLA-A*24:02; [9]) turn out when VYTQLCDHRL was run?
Answer: 6.35 nM

Question: How did the Kd (HLA-A*02:02; [20]) turn out when WSAIFFTTSL was run?
Answer: 2000 nM

Question: What about the Kd (HLA-A*02:06; [20]) of the same sequence?
Answer: 1400 nM

Question: What about the Kd (HLA-A*02:03; [20]) of the same sequence?
Answer: 6990 nM

Question: For YENLKYSVIV, which Kd (HLA-B*40:01 [7]; [10]) is on record?
Answer: 70.6 nM

Question: For YVDFREYEYD, which Kd (HLA-A*01:01 [2]; source organism: Homo sapiens) is on record?
Answer: 90 nM

Question: With YVDHYYRDY as the sequence, how does the Kd (HLA-A*01:01 [3]; source organism: Homo sapiens) read?
Answer: 92.3 nM

Question: What about the Kd (HLA-A*69:01; source organism: Homo sapiens) of the same sequence?
Answer: 2000 nM
